Reference: patent US20100111916A1
Blank lines part the entries; values can stand above or below the substance they belong to.

Assays:
Assay in all cases: cell-based or functional assay
CD80 (mouse) = CD80 (mouse) (UniProt Q00609)
CD54 (mouse) = CD54 (mouse) (UniProt P13597)
[1] = target: H-2K^b/OVAI peptide complex (mouse)

Chain of UniProt Q00609 (Q00609 38-306): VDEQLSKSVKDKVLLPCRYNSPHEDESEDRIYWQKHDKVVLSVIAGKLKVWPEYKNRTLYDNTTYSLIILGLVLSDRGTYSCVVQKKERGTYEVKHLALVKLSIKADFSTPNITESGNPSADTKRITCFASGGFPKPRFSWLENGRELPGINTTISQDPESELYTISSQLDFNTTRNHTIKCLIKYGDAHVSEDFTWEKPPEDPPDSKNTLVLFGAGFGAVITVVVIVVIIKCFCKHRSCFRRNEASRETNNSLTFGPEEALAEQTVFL
Chain of UniProt P13597 (P13597 28-537): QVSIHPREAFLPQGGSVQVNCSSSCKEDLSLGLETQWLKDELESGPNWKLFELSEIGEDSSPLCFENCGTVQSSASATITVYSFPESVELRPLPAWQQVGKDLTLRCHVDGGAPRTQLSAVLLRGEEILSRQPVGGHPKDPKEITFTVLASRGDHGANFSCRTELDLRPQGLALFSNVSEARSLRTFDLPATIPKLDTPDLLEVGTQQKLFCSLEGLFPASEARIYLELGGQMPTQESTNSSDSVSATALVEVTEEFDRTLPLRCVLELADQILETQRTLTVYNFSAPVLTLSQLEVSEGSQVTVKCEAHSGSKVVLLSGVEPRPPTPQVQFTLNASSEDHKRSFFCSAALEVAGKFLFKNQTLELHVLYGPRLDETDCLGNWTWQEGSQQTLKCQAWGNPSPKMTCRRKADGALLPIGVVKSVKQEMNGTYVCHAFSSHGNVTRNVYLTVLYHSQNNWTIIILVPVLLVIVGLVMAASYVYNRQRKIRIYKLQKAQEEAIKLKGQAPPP

- inhibition of Th-APC-stimulated OT I CD8^+ T cell proliferative response by CTLA-4/Ig fusion protein (15 µg/ml) (CD80 (mouse)): 58%
- inhibition of aTEXO-stimulated OT I CD8^+ T cell proliferative response by CTLA-4/Ig (10 µg/ml) (CD80 (mouse)): 49%
- inhibition of mDCEXO-stimulated OT I CD8^+ T cell proliferative response by CTLA-4/Ig (10 µg/ml) (CD80 (mouse)): 56%
Substance: CD28 (from UniProt P31041 20-218) (receptor)

- inhibition of Th-APC-stimulated OT I CD8^+ T cell proliferative response by anti-LFA-1 Ab (15 µg/ml) (CD54 (mouse)): 50%
- inhibition of aTEXO-stimulated OT I CD8^+ T cell proliferative response by anti-LFA-1 Ab (10 µg/ml) (CD54 (mouse)): 52%
- inhibition of mDCEXO-stimulated OT I CD8^+ T cell proliferative response by anti-LFA-1 Ab (10 µg/ml) (CD54 (mouse)): 49%
Substance: LFA-1 (from UniProt P24063 24-1162; P11835 24-771) (receptor)

- inhibition of Th-APC-stimulated OT I CD8^+ T cell proliferative response by anti-MHC class I Ab (15 µg/ml) [1]: 38%
- inhibition of aTEXO-stimulated OT I CD8^+ T cell proliferative response by anti-H-2K^b Ab (10 µg/ml) [1]: 49%
- inhibition of mDCEXO-stimulated OT I CD8^+ T cell proliferative response by anti-MHC class I Ab (10 µg/ml) [1]: 62%
Substance: OVA-specific TCR of OT I CD8^+ T cells
